PMC10754441

Biological target: T1, TipR (Caulobacter crescentus NA1000) (UniProt A0A0H3C6G9)
T1 sequence: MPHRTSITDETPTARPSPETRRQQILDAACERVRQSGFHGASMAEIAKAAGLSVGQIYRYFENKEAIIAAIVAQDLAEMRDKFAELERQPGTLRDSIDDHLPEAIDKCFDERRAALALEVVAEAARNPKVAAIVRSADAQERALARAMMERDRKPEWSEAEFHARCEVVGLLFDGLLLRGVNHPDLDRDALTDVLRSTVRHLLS
Experiment: EMSA
Conditions: EMSA: 40 mM Tris-HCl pH 7.6, 60 mM KCl, 0.1% glycerol, 240 ug calf DNA, 800 ug BSA, 100-200 ng probe, 30 min room temperature; 4% native TBE acrylamide gel

GGCGGCGAGTCCCACGGTCGTCGCCGCGACCGAGCGTTGGAAATGCATGTTTGACCCCGGGAGGCGAGGGTCGCGCGGGCTCTTACCCTTGACGCGGCCACTATGATGAACGATTTGAGAATGAACGTTCATTCTCATGTGGGCTGGACATAAGAGCTGGAGTGTCGCAAGTCAACCTCCGGCGCCGCGCGTTTGGCTGACCTAACGGAAATGTAATGCCGCACAGGACTTC (double strand) [PacrA]
binding: binds
